Values of other authors as cited in paper PMC6235721.

Biological target: FabI (Escherichia coli) (UniProt P0AEK4)
Chain of UniProt P0AEK4 (P0AEK4 2-262): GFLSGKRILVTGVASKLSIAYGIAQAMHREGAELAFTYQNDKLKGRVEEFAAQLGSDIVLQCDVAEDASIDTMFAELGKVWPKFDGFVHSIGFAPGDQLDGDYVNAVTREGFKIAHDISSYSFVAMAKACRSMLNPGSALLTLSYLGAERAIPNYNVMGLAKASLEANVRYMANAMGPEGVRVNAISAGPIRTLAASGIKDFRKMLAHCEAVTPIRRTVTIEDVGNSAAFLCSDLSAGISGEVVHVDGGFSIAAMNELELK

Kd: 712 nM
Substance: crypto-58-AcpP (from UniProt P0A6A8)
